Experimental data: paper PMC9478642 (2022)

B1: human T-plastin, full length, wild type [human] / F-actin (filaments of α-actin) [not stated] (parent complex)
chain 1: MDEMATTQISKDELDELKEAFAKVDLNSNGFICDYELHELFKEANMPLPGYKVREIIQKLMLDGDRNKDGKISFDEFVYIFQEVKSSDIAKTFRKAINRKEGICALGGTSELSSEGTQHSYSEEEKYAFVNWINKALENDPDCRHVIPMNPNTDDLFKAVGDGIVLCKMINLSVPDTIDERAINKKKLTPFIIQENLNLALNSASAIGCHVVNIGAEDLRAGKPHLVLGLLWQIIKIGLFADIELSRNEALAALLRDGETLEELMKLSPEELLLRWANFHLENSGWQKINNFSADIKDSKAYFHLLNQIAPKGQKEGEPRIDINMSGFNETDDLKRAESMLQQADKLGCRQFVTPADVVSGNPKLNLAFVANLFNKYPALTKPENQDIDWTLLEGETREERTFRNWMNSLGVNPHVNHLYADLQDALVILQLYERIKVPVDWSKVNKPPYPKLGANMKKLENCNYAVELGKHPAKFSLVGIGGQDLNDGNQTLTLALVWQLMRRYTLNVLEDLGDGQKANDDIIVNWVNRTLSEAGKSTSIQSFKDKTISSSLAVVDLIDAIQPGCINYDLVKSGNLTEDDKHNNAKYAVSMARRIGARVYALPEDLVEVKPKMVMTVFACLMGRGMKRV
chain 2: not shown

Variants of: B1
Experiment: sequential low-speed/high-speed F-actin cosedimentation assay; 5 μM actin, 2 μM plastin; read off a plot

Row | Variant | response
1 | chain 1 R594A | ~0.77 proportion of T-plastin in low-speed pellet
2 | chain 1 W390A | ~0.37 proportion of T-plastin in low-speed pellet
